{"source": "patent CN111471109A", "about": "(SHENZHEN INST OF ADV TECH CAS, dated 2020)", "binders": {"B1": {"name": "6G12F5抗体 (抗FGFR4的单克隆抗体6G12F5) (antibody, V domains shown)", "VH": "EVMLVESGGGLVKPGGSLKLSCAVSGFTFRNYAMSWVRQSPEKRLEWVAEISNGGRYIYYPDTVTGRFTISRDNAKNTLYLEMSSLRSEDTAMYYCVRGGEKTSGYVWFAYWGEGTLVTVG", "VL": "DIQMTQTPASLSASVEETVTITCRASENIYSYLAWYQQKQGRSPQLLLYNAKTLAEGVPSRFSGSGSGTQFSLKINSLQPEDFGIYYCQHFSGTPYTFGEGTKLEIT", "notes": "Mouse hybridoma monoclonal antibody (BALB/c), purified from ascites on Protein G and detected with anti-mouse IgG; also called FGFR4单克隆抗体; FGFR4抗体"}}, "target": "T1, FGFR4蛋白 (成纤维细胞生长因子受体4, recombinant protein antigen bought from 义翘神州 / Sino Biological) (human, UniProt P22455 22-369, limits assumed)", "T1 construct": "In the Western blot the protein was boiled and denatured; also called FGFR4蛋白抗原; fibroblast growth factor receptor 4", "T1 sequence (looked up)": "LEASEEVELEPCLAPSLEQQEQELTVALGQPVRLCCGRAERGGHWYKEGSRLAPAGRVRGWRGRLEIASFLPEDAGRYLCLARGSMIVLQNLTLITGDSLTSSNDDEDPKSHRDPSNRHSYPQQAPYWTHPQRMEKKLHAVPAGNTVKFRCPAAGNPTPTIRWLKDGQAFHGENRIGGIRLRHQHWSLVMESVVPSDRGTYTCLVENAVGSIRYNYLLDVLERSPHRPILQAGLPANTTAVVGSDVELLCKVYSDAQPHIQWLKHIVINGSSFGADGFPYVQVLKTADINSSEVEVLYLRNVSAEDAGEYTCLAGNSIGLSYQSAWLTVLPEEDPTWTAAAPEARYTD", "experiment": "BLI (OCTET K2), FGFR4 protein 10 μg/ml loaded on AHC (Anti-hIgG Fc Capture) sensors, 6G12F5 in solution at 8.84-566.7 nM"}
{"binder": "B1", "values": [{"measurement": "Kd", "value": "< 1", "unit": "pM"}]}
